Measured values taken from article PMC12873404.

Target: BTN2A2-His tag protein (without Fc tag) (human) (UniProt Q8WVV5)
Test: MST

- Kd: 63.5 nM
Substance: recombinant CD45RO-Fc protein (from UniProt P08575-4 26-1145) (Fc fusion)
